Assay results as given in US20140329742A1 (GlaxoSmithKline, published 2014).
Where no end group is shown, it is not given here.

T1: human Neuropeptide Y receptor type 2 (human, UniProt P49146 1-381)
T1 sequence (looked up): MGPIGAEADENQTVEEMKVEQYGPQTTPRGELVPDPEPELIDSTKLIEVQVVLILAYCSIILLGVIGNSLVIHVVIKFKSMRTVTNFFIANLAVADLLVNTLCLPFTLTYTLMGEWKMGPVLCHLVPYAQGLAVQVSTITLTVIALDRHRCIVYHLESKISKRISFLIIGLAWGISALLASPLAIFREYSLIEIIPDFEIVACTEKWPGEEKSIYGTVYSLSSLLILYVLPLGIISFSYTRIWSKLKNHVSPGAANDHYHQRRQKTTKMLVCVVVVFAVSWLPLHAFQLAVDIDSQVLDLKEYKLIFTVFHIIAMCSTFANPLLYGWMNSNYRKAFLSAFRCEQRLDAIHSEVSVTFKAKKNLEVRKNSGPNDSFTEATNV

B1: Example 31 (peptide)
peptide: PKPEAPGKDASPEELNRYYASLRKYLNWVTRQRY-NH2
B2: Example 25 (peptide)
peptide: PKPEHPGKDASPEEWNRYYASLRKYLNWVTRQRY-NH2
B3: Example 2 (peptide)
peptide: PKPEAPGKDASPEELNRYYASLRKYLNWLTRQRY-NH2
B4: Peptide 14 (peptide)
peptide: PKPEAPGCDASPEEWNRYYASLRKYLNWVTRQHY-NH2
B5: Peptide 1 (peptide)
peptide: PKPEAPGCDASPEEWNRYYASLRKYLNWVTRQNY-NH2
B6: Peptide 21 (peptide)
peptide: PKPEAPLSKQLEEEAVRYYASLRHYLNLVTRQRY-NH2
B7: Peptide 15 (peptide)
peptide: PKPVAPGCDASPAELNRQYSDLRNYWNLVTRQRY-NH2
B8: Peptide 8 (peptide)
peptide: IKPPYPGCDASPEEQNKYYASLRAYWNLVTRQRY-NH2
B9: Peptide 2 (peptide)
peptide: IKPEAPLSKQLEEEAVRYYASLRHYLNLVTRQRY-NH2
B10: Peptide 3 (peptide)
peptide: PKPEAPGEDASPKEWNRYYASLRKYLNWVTRQRY-NH2

Biological target: T1, human Neuropeptide Y receptor type 2
Assay: cell-based or functional assay

Compared with B1, B2 is lower in “hNPY Y2 pEC50 (melanophore assay)” value: 9.8 for the first, 9.6 for the second.

In the case of B3, the “hNPY Y2 pEC50 (melanophore assay)” value is reported as 9.8.

Biological target: T1, human Neuropeptide Y receptor type 2
Assay: cell-based or functional assay
Remark: another data set of the same source

Compared with B4, B5 is lower in “hNPY Y2 pEC50 (melanophore assay)” value: 8.2 for the first, 7.9 for the second.

First: B6
Second: B7
The “hNPY Y2 pEC50 (melanophore assay)” value of the first is lower: 8.7 for the first, 8.9 for the second.

Compared with B8, B9 is lower in “hNPY Y2 pEC50 (melanophore assay)” value: 9.3 for the first, 8.6 for the second.

In the case of B10, the “hNPY Y2 pEC50 (melanophore assay)” value is reported as 9.2.
